This passage reports Kd results from PMC6780499, “Characterization, Recombinant Production and Structure-Function Analysis of NvCI, A Picomolar Metallocarboxypeptidase Inhibitor from the Marine Snail Nerita versicolor” (Marine Drugs, 2019).

Common to all, as to experiment: Ki, residual activity
In one assay the target is T1, bCPA1 (Bos taurus (Bovine), UniProt P00730).
T1 chain: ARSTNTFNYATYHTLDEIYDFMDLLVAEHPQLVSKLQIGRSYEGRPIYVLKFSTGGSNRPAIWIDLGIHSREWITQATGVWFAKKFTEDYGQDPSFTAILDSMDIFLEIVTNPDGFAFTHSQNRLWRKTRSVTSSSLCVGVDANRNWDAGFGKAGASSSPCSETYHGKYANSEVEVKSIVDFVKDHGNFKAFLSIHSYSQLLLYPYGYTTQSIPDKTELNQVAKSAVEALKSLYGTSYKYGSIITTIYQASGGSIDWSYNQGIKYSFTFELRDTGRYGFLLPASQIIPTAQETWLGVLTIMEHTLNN

For another assay, the target named is T2, hCPZ (Homo sapiens (Human), UniProt Q66K79).
T2 chain: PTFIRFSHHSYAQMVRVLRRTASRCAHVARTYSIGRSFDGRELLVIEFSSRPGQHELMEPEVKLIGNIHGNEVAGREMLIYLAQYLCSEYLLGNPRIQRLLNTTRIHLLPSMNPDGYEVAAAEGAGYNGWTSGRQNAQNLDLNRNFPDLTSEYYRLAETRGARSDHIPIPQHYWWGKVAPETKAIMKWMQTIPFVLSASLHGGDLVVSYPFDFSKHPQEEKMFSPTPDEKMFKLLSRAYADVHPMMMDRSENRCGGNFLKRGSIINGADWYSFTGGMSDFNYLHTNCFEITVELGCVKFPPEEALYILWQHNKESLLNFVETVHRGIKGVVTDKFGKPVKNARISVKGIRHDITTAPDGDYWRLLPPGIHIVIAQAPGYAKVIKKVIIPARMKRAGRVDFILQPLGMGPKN

The next assay addresses T3, hCPA4 (Homo sapiens (Human), UniProt Q9UI42).
T3 chain: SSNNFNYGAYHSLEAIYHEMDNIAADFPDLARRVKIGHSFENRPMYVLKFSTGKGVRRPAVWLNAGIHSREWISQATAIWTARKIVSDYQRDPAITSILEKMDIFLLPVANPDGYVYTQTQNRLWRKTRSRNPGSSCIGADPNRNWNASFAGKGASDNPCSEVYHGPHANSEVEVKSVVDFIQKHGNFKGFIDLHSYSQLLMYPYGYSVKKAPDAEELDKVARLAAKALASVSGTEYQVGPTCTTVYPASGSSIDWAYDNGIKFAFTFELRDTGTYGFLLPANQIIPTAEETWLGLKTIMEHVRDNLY

Another assay deals with T4, pCPB (Sus scrofa (Pig), UniProt P09955).
T4 chain: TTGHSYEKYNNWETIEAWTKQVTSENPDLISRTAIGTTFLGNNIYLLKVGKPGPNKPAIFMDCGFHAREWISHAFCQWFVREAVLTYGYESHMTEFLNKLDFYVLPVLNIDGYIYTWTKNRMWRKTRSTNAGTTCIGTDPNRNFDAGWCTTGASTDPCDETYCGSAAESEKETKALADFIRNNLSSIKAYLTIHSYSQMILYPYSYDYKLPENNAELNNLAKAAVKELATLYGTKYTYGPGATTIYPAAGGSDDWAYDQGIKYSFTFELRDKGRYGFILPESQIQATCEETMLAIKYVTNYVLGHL

For the next assay, the target named is T5, hCPA1 (Homo sapiens (Human), UniProt P15085).
T5 chain: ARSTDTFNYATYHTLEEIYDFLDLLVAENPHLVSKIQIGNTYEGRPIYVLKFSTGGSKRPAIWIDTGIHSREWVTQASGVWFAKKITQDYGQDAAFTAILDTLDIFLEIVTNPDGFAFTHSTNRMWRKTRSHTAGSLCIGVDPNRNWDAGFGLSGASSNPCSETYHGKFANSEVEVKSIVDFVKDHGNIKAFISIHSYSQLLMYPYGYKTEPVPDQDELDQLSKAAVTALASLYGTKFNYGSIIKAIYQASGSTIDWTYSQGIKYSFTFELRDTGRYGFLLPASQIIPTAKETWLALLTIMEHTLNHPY

The target in a further assay is T6, hCPA2 (Homo sapiens (Human), UniProt P48052).
T6 chain: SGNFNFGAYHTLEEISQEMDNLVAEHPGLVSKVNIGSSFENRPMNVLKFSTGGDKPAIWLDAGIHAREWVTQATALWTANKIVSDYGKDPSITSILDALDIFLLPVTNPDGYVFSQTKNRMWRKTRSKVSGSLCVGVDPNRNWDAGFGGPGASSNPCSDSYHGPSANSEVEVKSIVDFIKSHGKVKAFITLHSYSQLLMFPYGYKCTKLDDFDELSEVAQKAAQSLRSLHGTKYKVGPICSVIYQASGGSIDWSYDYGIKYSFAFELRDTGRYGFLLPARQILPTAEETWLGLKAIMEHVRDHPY

Another assay deals with T7, hCPD (Homo sapiens (Human), UniProt O75976).
T7 chain: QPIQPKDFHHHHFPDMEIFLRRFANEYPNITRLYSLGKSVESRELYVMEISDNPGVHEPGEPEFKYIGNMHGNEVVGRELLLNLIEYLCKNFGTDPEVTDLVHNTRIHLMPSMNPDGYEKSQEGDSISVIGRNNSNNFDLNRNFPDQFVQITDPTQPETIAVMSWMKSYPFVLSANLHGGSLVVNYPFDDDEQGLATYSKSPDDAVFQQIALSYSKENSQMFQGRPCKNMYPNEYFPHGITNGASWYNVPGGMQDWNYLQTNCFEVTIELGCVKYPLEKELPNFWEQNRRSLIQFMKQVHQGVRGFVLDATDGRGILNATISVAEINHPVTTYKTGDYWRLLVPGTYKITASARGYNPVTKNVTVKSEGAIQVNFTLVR

In the next assay the target is T8, hCPB (Homo sapiens (Human), UniProt P15086).
T8 chain: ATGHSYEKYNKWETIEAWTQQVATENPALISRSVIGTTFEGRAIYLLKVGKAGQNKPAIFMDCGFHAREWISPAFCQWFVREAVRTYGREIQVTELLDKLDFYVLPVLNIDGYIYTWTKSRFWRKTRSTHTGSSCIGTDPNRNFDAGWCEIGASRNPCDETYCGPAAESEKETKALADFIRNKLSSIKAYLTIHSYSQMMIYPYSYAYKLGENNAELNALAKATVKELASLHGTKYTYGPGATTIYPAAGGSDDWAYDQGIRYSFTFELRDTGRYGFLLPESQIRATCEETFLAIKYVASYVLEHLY

No end group written: not given here. Some results are limits rather than exact numbers.

B1: NvCI (protein)
chain: FHVPDDRPCINPGRCPLVPDATCTFVCKAADNDFGYECQHVWTFEGQRVGCYA
modifications: disulfide (positions not given here); not fully specified (bridges); ends not checked
Consider B1, for which the Kd with bCPA1 is 0.0058 nM; in the assay with hCPZ, greater than 1000 nM; with hCPA4, 0.0049 nM; with pCPB it was 0.335 nM; in the assay with hCPA1, 0.0012 nM; with hCPA2 it was 2.94 nM. In addition, the equilibrium dissociation constant (Kd) in the assay with hCPD is greater than 1000 nM; with hCPB it was 0.549 nM.
